Results taken from patent publication US20210130436A1.
Values joined by “and” are separate entries in the source; they are usually repeats but may differ in a detail not shown here. Equal values may be shown once. Values belong to the substance of their own block, whether it stands above or below them.

Tests used:
PD-L1 (human) [1] = target: PD-L1 (human) (UniProt Q9NZQ7); experiment: cell-based or functional assay
PD-L1 (human) [2] = target: PD-L1 (human) (UniProt Q9NZQ7); experiment: flow cytometry on CHO cells stably expressing PD-L1
[3] = target: human CD28, endogenous on Jurkat/IL2 reporter cells (human) (UniProt P10747); experiment: flow cytometry, Jurkat/IL2 reporter cells (endogenous CD28), PE anti-human Fc
[4] = target: PD-1 expressed on cells (Homo sapiens (Human)) (UniProt Q15116); experiment: flow cytometry; 20 nM Fc fusion on cells expressing PD-1
CD28 (human) = CD28 (human) (UniProt P10747); experiment: flow cytometry, Jurkat/IL2 reporter cells (endogenous CD28), 33.3 nM, PE anti-human Fc
human CTLA-4 (human) [5] = target: human CTLA-4 (human) (UniProt P16410); experiment: flow cytometry, CHO cells stably expressing huCTLA4, 33.3 nM, PE anti-human Fc
PD-L1 (human) [6] = target: PD-L1 (human) (UniProt Q9NZQ7); experiment: flow cytometry, CHO cells stably expressing huPD-L1, 33.3 nM, PE anti-human Fc
[7] = target: CD28, endogenously expressed on Jurkat/IL2 reporter cells (human) (UniProt P10747); experiment: flow cytometry, Jurkat/IL2 reporter cells (endogenous CD28), PE anti-human Fc
[8] = target: human CTLA-4, full-length, on transduced CHO cells (human) (UniProt P16410); experiment: flow cytometry, CHO cells expressing huCTLA4, PE anti-human Fc
[9] = target: PD-1 expressed on cells (Homo sapiens (Human)) (UniProt Q15116); experiment: flow cytometry; 20 nM protein on cells expressing PD-1
[10] = target: CD80 expressed on cells (human) (UniProt P33681); experiment: flow cytometry; 20 nM protein on cells expressing CD80
[11] = target: human PD-L1 on CHO cells (human) (UniProt Q9NZQ7); experiment: cell-based or functional assay
[12] = target: PD-1 (Homo sapiens (Human)) (UniProt Q15116); experiment: flow cytometry on Jurkat/PD-1 cells, 50 nM
CD112R [13] = target: CD112R (UniProt Q6DKI7); experiment: flow cytometry, protein at 25 nM on cells expressing CD112R
Target sequence in this assay (Q6DKI7 41-326 limits assumed, form in doubt): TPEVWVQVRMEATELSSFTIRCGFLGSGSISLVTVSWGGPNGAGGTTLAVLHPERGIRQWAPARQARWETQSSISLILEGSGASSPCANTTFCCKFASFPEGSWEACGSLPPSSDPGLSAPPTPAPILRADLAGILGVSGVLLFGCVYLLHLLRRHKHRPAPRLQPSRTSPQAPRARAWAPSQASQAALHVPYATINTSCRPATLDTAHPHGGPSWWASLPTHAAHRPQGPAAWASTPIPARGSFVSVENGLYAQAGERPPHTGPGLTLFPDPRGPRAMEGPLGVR

CD226 = CD226 (UniProt Q15762); experiment: flow cytometry, protein at 25 nM on cells expressing CD226
TIGIT [14] = target: T1, TIGIT (UniProt Q495A1); experiment: flow cytometry on cells expressing TIGIT, Fc fusion at 100 nM
T1 sequence (looked up): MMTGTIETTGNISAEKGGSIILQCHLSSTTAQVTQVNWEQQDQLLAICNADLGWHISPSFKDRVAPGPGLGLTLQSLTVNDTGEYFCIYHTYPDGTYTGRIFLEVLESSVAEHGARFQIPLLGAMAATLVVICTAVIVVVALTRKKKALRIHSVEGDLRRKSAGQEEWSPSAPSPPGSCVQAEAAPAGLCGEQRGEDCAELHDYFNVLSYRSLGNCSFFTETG

TIGIT [15] = target: T1, TIGIT; experiment: flow cytometry, MFI ratio to wildtype CD155 ECD-Fc, TIGIT cells
[16] = target: human CD28, full-length, expressed on transfected HEK293 (Expi293F) cells (human) (UniProt P10747); experiment: flow cytometry, Fc control on HEK293 cells transfected with full-length human CD28
[17] = target: human PD-L1, full-length, expressed on transfected HEK293 (Expi293F) cells (human) (UniProt Q9NZQ7); experiment: flow cytometry, Fc control on HEK293 cells transfected with full-length human PD-L1
[18] = target: human CTLA4, full-length, expressed on transfected HEK293 (Expi293F) cells (human) (UniProt P16410); experiment: flow cytometry, Fc control on HEK293 cells transfected with full-length human CTLA4
[19] = target: PD-L1 expressed on CHO/OKT3/PD-L1 artificial antigen presenting cells (human) (UniProt Q9NZQ7); experiment: cell-based or functional assay
[20] = target: human CTLA4 (full-length, expressed on CHO cells) (human) (UniProt P16410); experiment: flow cytometry, CHO cells expressing huCTLA4, PE anti-human Fc
[21] = target: CD28, endogenously expressed on Jurkat/IL2 reporter cells (human) (UniProt P10747); experiment: flow cytometry on Jurkat/IL2 reporter cells (endogenous CD28); PE anti-human Fc
[22] = target: human CTLA4 (huCTLA4), full-length, stably expressed on CHO cells (human) (UniProt P16410); experiment: flow cytometry, CHO cells expressing huCTLA4
[23] = target: CD28, endogenously expressed on Jurkat/IL2 reporter cells (human) (UniProt P10747); experiment: flow cytometry, Jurkat/IL2 reporter cells (endogenous CD28)
CD96 = target: T2, CD96 (UniProt P40200); experiment: flow cytometry on cells expressing the target, 20 nM Fc fusion
T2 sequence (looked up): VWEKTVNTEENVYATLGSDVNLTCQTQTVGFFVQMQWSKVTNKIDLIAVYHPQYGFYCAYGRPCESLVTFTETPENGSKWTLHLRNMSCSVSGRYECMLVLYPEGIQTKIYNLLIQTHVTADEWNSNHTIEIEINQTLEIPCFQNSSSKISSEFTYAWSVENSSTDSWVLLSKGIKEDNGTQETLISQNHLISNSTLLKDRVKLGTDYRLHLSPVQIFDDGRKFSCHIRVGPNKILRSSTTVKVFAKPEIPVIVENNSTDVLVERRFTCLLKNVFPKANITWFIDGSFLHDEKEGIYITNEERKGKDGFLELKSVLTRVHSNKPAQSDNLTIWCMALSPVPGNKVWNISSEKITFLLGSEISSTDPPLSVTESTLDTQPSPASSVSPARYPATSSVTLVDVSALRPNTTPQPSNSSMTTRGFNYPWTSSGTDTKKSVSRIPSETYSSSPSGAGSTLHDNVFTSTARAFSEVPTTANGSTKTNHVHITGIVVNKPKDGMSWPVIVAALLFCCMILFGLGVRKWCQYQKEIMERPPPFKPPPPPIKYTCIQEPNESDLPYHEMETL

[24] = target: human CTLA4, full-length, expressed on transfected HEK293 (Expi293F) cells (human) (UniProt P16410); experiment: flow cytometry, Fc fusion on HEK293 cells transfected with full-length human CTLA4
CD112R [25] = target: CD112R (UniProt Q6DKI7); experiment: flow cytometry on CD112R-expressing cells
Target sequence in this assay (Q6DKI7 41-326 limits assumed): as the sequence (Q6DKI7 41-326 limits assumed, form in doubt) above

PD-L1 (human) [26] = target: PD-L1 (human) (UniProt Q9NZQ7); experiment: flow cytometry, CHO cells stably expressing PD-L1
human CTLA-4 (human) [27] = target: human CTLA-4 (human) (UniProt P16410); experiment: flow cytometry, CHO cells stably expressing CTLA4

Sequence of PD-1 (Homo sapiens (Human)) (Q15116 21-288): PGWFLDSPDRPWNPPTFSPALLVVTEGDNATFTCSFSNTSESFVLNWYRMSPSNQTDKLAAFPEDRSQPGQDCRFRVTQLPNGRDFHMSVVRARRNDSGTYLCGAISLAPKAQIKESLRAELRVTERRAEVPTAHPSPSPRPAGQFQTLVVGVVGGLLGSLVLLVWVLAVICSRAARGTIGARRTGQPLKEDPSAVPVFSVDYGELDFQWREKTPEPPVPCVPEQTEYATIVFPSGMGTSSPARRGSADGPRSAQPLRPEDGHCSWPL
Sequence of PD-1 expressed on cells (Homo sapiens (Human)) (Q15116 21-288): as above
Sequence of human CTLA4, full-length, expressed on transfected HEK293 (Expi293F) cells (human) (P16410 36-223): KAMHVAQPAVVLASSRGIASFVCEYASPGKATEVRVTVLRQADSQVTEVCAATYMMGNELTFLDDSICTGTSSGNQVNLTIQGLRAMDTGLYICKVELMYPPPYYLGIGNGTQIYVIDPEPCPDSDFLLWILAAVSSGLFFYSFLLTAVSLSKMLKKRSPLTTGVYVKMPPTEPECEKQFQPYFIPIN
Sequence of human CTLA-4 (human) (P16410 36-223): as above
Sequence of human CTLA4 (full-length, expressed on CHO cells) (human) (P16410 36-223): as above
Sequence of human CTLA-4, full-length, on transduced CHO cells (human) (P16410 36-223): as above
Sequence of human CTLA4 (huCTLA4), full-length, stably expressed on CHO cells (human) (P16410 36-223): as above
Sequence of CD226 (Q15762 19-336): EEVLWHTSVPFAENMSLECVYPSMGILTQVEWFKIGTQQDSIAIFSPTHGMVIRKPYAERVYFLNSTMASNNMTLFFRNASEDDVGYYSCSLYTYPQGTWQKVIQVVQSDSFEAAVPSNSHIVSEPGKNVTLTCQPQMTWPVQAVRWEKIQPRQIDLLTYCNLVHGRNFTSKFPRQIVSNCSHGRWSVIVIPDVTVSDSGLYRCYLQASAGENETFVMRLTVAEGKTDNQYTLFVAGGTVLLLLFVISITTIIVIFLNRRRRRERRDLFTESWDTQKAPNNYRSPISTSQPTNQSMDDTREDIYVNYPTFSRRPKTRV

Substance: wild-type CD80 ECD-Fc (inert), Example 15 (from UniProt P33681 35-242) (Fc fusion)
RLU, Jurkat/IL2 + CHO/OKT3/PD-L1 Reporter Assay, CD80 Conc 5.0 nM (PD-L1 (human) [1]): 159 RLU
MFI at 33.3 nM (PD-L1 (human) [2]): 161 MFI

Substance: variant CD80 IgV-Fc E35D/D46E/M47V/N63D/L85Q (from UniProt P33681 35-141) (Fc fusion)
MFI at 33.3 nM [3]: 1330 MFI

Substance: deltaE10-A98 CD80 IgV-Fc (Fc fusion)
MFI at 33.3 nM (CD28 (human)): 15 MFI
MFI at 33.3 nM (human CTLA-4 (human) [5]): 125 MFI
MFI at 33.3 nM (PD-L1 (human) [6]): 45 MFI

Substance: variant CD80 IgV-Fc Q33L/E35D/T41S/M43I (from UniProt P33681 35-141) (Fc fusion)
MFI at 33.3 nM [7]: 433 MFI

Substance: E35D/D46E/M47L/V68M/L85Q/F92L CD80 IgV-Fc (from UniProt P33681 35-141) (Fc fusion)
MFI at 33.3 nM (CD28 (human)): 15 MFI

Substance: variant CD80 IgV-Fc R29H/E35D/M43V/M47I/I49V (from UniProt P33681 35-141) (Fc fusion)
MFI at 33.3 nM [8]: 4690 MFI

Substance: Fc Control
MFI at 20 nM [9]: 59 MFI
MFI at 20 nM [10]: 132 MFI

Substance: variant CD80 IgV-Fc deltaE10-A98 (Fc fusion)
Fold Increase over WT CD80-IgV-Fc [11]: 0.3 fold
Jurkat/IL2 + CHO/OKT3/PD-L1 Reporter Assay: Relative Luciferase Units (RLU), CD80-Fc Conc 5.0 nM [11]: 137 RLU

Substance: PD-L1 A33D/S75P IgV-Fc (first entry) (from UniProt Q9NZQ7 19-132) (Fc fusion)
Fold increase over wildtype PD-L1 IgV-Fc [12]: 0.1 fold
MFI at 50 nM [12]: 306

Substance: CD112-IgV (from UniProt Q92692 32-158) (Fc fusion)
MFI at 25 nM (CD112R [13]): 17800 MFI
MFI at 25 nM (CD226): 824 MFI

Substance: Wildtype (CD155 entry without mutations among the variant rows of Table 20B) (from UniProt P15151 21-142) (Fc fusion)
MFI at 100 nM (TIGIT [14]): 1960 MFI and 2180 MFI
Fold ↑ to WT ECD (TIGIT [15]): 0 fold

Substance: variant CD80 IgV-Fc Q33L/E35D/T41S/M47V (from UniProt P33681 35-141) (Fc fusion)
MFI at 33.3 nM [20]: 14500 MFI

Substance: variant CD80 IgV-Fc E35D/M47L/A71G/L85Q (from UniProt P33681 35-141) (Fc fusion)
MFI at 33.3 nM [3]: 1440 MFI

Substance: CD112 A112V IgV-Fc (from UniProt Q92692 32-158) (Fc fusion)
MFI at 20 nM (CD96): 1210 MFI and 1180 MFI

Substance: variant CD80 IgV-Fc Q33L/E35D/M43I/Y53F/T62S/L85Q (from UniProt P33681 35-141) (Fc fusion)
MFI at 33.3 nM [21]: 1024 MFI

Substance: variant CD80 IgV-Fc K36R/G78A (from UniProt P33681 35-141) (Fc fusion)
MFI at 66.6 nM [24]: 11900 MFI

Substance: variant CD112 IgV-Fc R12W/A46T/K66M/Q79R/N106I/T113A/S118F (from UniProt Q92692 32-158) (Fc fusion)
MFI at 100 nM (CD112R [25]): 1660 MFI

Substance: CD80 IgV-Fc T13R/Q33R/E35D/M38I/M47L/V68M (from UniProt P33681 35-141) (Fc fusion)
MFI at 33.3 nM (human CTLA-4 (human) [27]): 193 MFI

Substance: variant CD80 IgV-Fc E35D/K37E/M47V/N48D/L85Q/D90N (from UniProt P33681 35-141) (Fc fusion)
MFI at 33.3 nM [3]: 1590 MFI

The next lines start with the values.

MFI at 20 nM [4]: 125 MFI
Substance: variant PD-L1 G15A/I36T/V129D/R195G Fc fusion (from UniProt Q9NZQ7 19-238)

MFI at 66.6 nM [16]: 2590 MFI
MFI at 22.2 nM [17]: 4740 MFI
MFI at 66.6 nM [18]: 5960 MFI
Substance: Fc only

Relative Luciferase Units (RLU), Jurkat/IL2 + CHO/OKT3/PD-L1 reporter assay, CD80 Conc 5.0 nM [19]: 97 RLU
Substance: Fc1.1 Control (from UniProt P0DOX5 218-448)

MFI at 33.3 nM [21]: 1290 MFI
Substance: variant CD80 IgV-Fc E35D/M42V/M47V/E52D/L85Q (from UniProt P33681 35-141) (Fc fusion)

MFI at 33.3 nM [20]: 15900 MFI
Substance: variant CD80 IgV-Fc Q33L/E35D/M47I (from UniProt P33681 35-141) (Fc fusion)

MFI at 33.3 nM [22]: 139 MFI
MFI at 33.3 nM [23]: 16.7 MFI
Substance: variant CD80 IgV-Fc H18Y/E35D/M38I/M47L/V68M/L85M (from UniProt P33681 35-141) (Fc fusion)

MFI at 33.3 nM [7]: 434 MFI
Substance: variant CD80 IgV-Fc H18L/V22A/E35D/M47L/N48T/L85Q (from UniProt P33681 35-141) (Fc fusion)

Jurkat/IL2 + CHO/OKT3/PD-L1 reporter assay, RLU at CD80 Conc 5.0 nM (PD-L1 (human) [1]): 521 RLU
MFI at 33.3 nM (PD-L1 (human) [6]): 68 MFI
MFI at 33.3 nM (PD-L1 (human) [26]): 52 MFI
Substance: WT CD80 ECD-Fc (from UniProt P33681 35-242) (Fc fusion)

MFI at 33.3 nM [21]: 1550 MFI
Substance: variant CD80 IgV-Fc E35D/Y53H/A71G/D90G/L97R (from UniProt P33681 35-141) (Fc fusion)
